# Reference: the DeepSol protein solubility set
# Test: soluble on expression in E. coli; label from the status in PepcDB or PDB records
row,Sequence,soluble on expression in E. coli
1,MWKWETENDAKGVVVIAHNILEHTGRYAYVITMLRRNGYHVIMGDLPGQGQTSRAQKGQIDDFNTYHENILEWIKIANEYKIPTFVLGVGLGGLIILNLLEKTELPIEGILLFSPMLELKRDYKGRKNKLISNVGKISKDTRFKVGITPQDLTRNDEIIEETANDGLMLKKVTYSWYNLINEKMKETMDHIRDIKPISALIMYGTNDKILETQSINEMKDKLKSKEMYFKVWDGLYHEIHNEPERDLVMRYVLSFLNNSVNTMGFIVNEEEIEDI,not soluble
2,MDEDTRLSRYLYLTDREHINVDSIKQLCKISDPNACYRCGCTALHEYFYNYRSVNGKYKYRYNGYYQYYSSSDYENYNEYYYDDYDRTGMNSESDNISIKTEYENEYEFYDETQDQSTQLVDYDIKLKTNEDDFVDEFYGYDRSVGVHDYIDVSINKVVYGRESHVRWRDIWQEHNDGVYSIGKECIDNIYEDRHTVDEFYKIDSVSDVDDAEHISQITNDVSTQTWEKKSELDRYMEMYPRHRYGKHSVFKGFSDKVRKNDLDMNVVKELLSNGASLTIKDSSNKDPIAVYFRRTIMNLEMIDIINKHTTIYERRYIVHSYLKNYRNFDYPFFRKLVLTNKHCLNNYYNISDSKYGTPLHILASNKKIITPNYMKLLVYNGNDINARGEDTQMRTPLHKYLCKFVYHNIEYGIRYYNEKIIDAFIELGADLTIPNDDGMIPVVYCIHSNAEYGYNNITNIKIIRKLLNLSRHASHNLFRDRVMHDYISNTYIDLECLDIIRSLDGYDINCYFEGRTPLHCAIQYNFTQIAEYLLDRGADISLKTDDGKTVFDLSLCSYIPLKWTSFLISRLPPKSVICSLTNHIIDYVLTNNRRIIWQSQMINKYVLLLDPSFYYRFRNAIENKLDQYNNRYNMFEHDRDVNEKYGKVLHDLDTYIKDVQVLKSTSITNNITLYDTIINNKSEFPIRRANDKQLINLIKSNTYHNLIEKVIKNTLEKYTLTNIVLEYMISSQSQSQSSYLSRIPNEILLEILYKLDMYDLRNLYTRYMRENDITEYHIENTRSVSTQT,not soluble
3,MSRIRSNNDNIIILTDEQRKTVGRIAGRSQNRNTSKKIADGPYFLPRYRIRDNAERSVGARFKSLPQKEQDEVVNEAFSNLREYLKKREPFYAKLRKANSKYSSKPKEREKSVDSNDEADRRNKGNKKTQKNASKNCQIEKSSNNSGILKKSGSGISVASKPKKSVAFAPGVYEDLSTDDDLEFLNSVIVNSDRPTSQCDNPARRMCGRPPTKHRDTEQSQEITGSKKQKIFPTPHEKPAWWSFRIPKKRAQ,soluble
4,SLFARITFYPSLFYNVMMEKITARHWYDRIDENVILGALPFRSVAQEMVQKENIKAVVSMNEDYELWAFSNNKARWAKLGVEFLQLETTDIFESPCQEKLWKGVNFMNRFLPANDRMALLPAAPGELAEPGTIYVHSKAGRTRSATLVGCYLIMKNGWSPEQAVEHMRQCRPHILLRSKQWEALRLFHQTKCPPPK,soluble
5,MGSDKIHHHHHHMSAKQYDTLNNAEITSLAHRALACYPAALQGEVRLLCRSENATFLVTSAGKRYALRLHRSHYHQKAEIESELLWLDALRETGIVVPEAVRDASGERVQSLGLSDGSCRYAVLFHWIDGEMPTTSIDPRTFQQLGEITAHLHQHSRQWQKPDGFQRIVWDHHTMVSAQSHWGSWRDAPNLSRDEHGIVEEAIERMGTEMAEFGKAPHRYGLIHADLRLTNLLLHRGETRVIDFDDCGMGWYLHDLAAAISFVEHHPRAAEWVENWLCGYERVAHVSDEELALLPTLLIQRRIQLTAWVGSHAETEMAQSLGPDWASHSVRLCRRYLETRDLPLGVA,not soluble
6,MGSDKIHHHHHHMADQMQWANALSTRHSLEAAVTDVVERAVSLLTAPADLGLVFISSAFTSEYSRLLPLLAEKLSVPVLIGCSGGGVIGTTVNGEIQELEAEPAISLTLAHLPGVKVQVFHVVAEELPDLDSSPDAWVDLIGVPASPTPQFILLSSSFASGINDLLQGLDFAYPGSVIVGGQASGGGMGGRVALFCNESDGEECQSLYREGTVGIALTGNIVLETIVAQGCRPIGKPLQVTKADRNIILELDEQVPLVVLRDLIASLSEHERTLAQHSLFVGVAMDEFKLALQQGDFLIRGILGVDPTAGAIAIGDRVRPGQRLQFHLRDAQASAEDLELLLQSYQTQRESEPSAVAALMFACLGRGEGLYGKPNFDSELFRRYLSDIPVGGFFCGGEIGPVGGRTFLHAYTSAFGICRQNQL,not soluble
7,VKLLTDLFKAGLRTPSTDQIQKISMELSFYGKIESKNVFYWFQNHKARERQKCRKISTVKFDHRQDTDLSKPRRDNVRRHQLPAKG,not soluble
8,TPGKSDEAKDVFQVQDIPPVTAIGQSGLRLNLIGKNDRILNVNSPVLYENFMVGQVESAHFDPSDQSVHYTIFIQSPNDKLIHSASRFWLESGINIETTGSGIKLNSAPLPALLSGAISFDSPKTKNSKNVKSEDSFTLYDSRSEVANLPDDRSLYYTAFFKQSVRGLTVGSPVEYKGLNVGVVSDVPYFDRNDSLHLFENGWIPVRIRIEPSRLEINADEQSKEHWKQQFQTALNKGLTATISSNNLLTGSKMIELNDQPSASPKLRPHTVYAGDTVIATQGGGLDDLQVKLADLLDKFDKLPLDKTVAELNGSLAELKSTLKSANAALSSIDKLVGKPQTQNIPNELNQTLKELRTTLQGVSPQSPIYGDVQNTLQSLDKTLKDVQPVINTLKEKPNALIFNSSSKDPIPKGSR,not soluble
9,MVKERRTELVEGFRHSVPYINAHRGKTFVIMLGGEAIEHENFSNIVNDIGLLHSLGIRLVVVYGARPQIDANLAEHHHEPVYHKQTRVTDAKTLELVKQAAGMLQLEITARLSMSLNNTPLQGAHINVVSGNFIIAQPLGVDDGVDYCHSGRIRRIDEEAIHRQLDSGAIVLMGPVAVSVTGESFNLTSEEIATQLAIKLKAEKMIGFCSSQGVYNQAGEIVSELFPNEAQARVEELEADEDYNSGTVRFLRGAVKACRSGVRRCHLISYQENGALLQELFSRDGIGTQIVMESAEQIRRATINDIGGILELISPLEQQGILVRRSREQLEMEIDKFTIIQRDNTTIACAALYPFPEEKIGEMACVAVHPDYRSSSRGEVLLERIAAQARQMGLSKLFVLTTRSIHWFQERGFTPVDIDLLPESKKQMYNYQRRSKVLMADLA,not soluble
10,MGSDKIHHHHHHVPNEKLSNRDRLLAVRDIFEQYSDEEQTLTLEELSTELSKRGLIEKLSRKSLKEDIAALAKSGFDIHAEETKNGLAIPYHLVSRPFEYHHLRLLVDAIASAKFISESETEVLVRNIHTLTSKRLAKTLTPVIHTVKKPKGVIPFSIDTIQKAIIEQDIISFQYQGKFNERTRKFELRRDGDYYLVTPAHLIVDNGNYYLIGRDERVEEIRTYRVDRIVNCSVFEPAQTPVEVEATYLSSMFNMYGGEQEQLTLKFHESVMPTVVDRFGTDIRCRRLEGDWFEVKVGALFSQGFMMWLIQFAEQAEILEPALCREAFKNKVLELAKVYQAGVPVSPQMNESV,not soluble
11,MVADNSEKSTKSVANGSLISTVSSKDDLPNAIIVTQVPEDVFDNKQDKANFSSLFTQIEKDIHFDFLRSFRRVRVIFSSPENATAAKLIVQGFSFKGHELKAFFAQRIYMSANSQMLSPPPLEKQFLISPPCSPPVGWEQTKDMPPVVCNFDLMARLASFAIDEKYEVHNGDELTPAIIVHPCETPIDVPSAIEMPRTPRPSSPCEQ,not soluble
12,MYLKETLDQFTSINNILKLLKKSPGFNKYCIQERLPKETVITSDKRRKYIYIIEDGFMKLVFEGTNKHNFSYILQKGAFPHLPVYTEDIPKHMMLIALTDVVWWKIEFQFFKEMMELEDPRNYIMLHQLAETRRRLYIIAVQEKLSSRESIYFSLNTMIDYGLRVSEKAVELPKFLTYQILADNSNTSKSYTSKVLSNLREKGILESQKKPWRINDVQKLQELIDAEALLAIL,not soluble
13,MSLKYVKSLFEIHPDIATKFRIKNQYLKTGYMNVLLCLIETVRRSPKEISKNDLADAYVALESLTDHGFKLDWLKKKLDQVTQKKEKEAAGETRMHEIGEELKDLKLKCSDLEAQLDKVKWKCSDLEAQLVKEKADVLAAIAPLGSSDDGVFDDFFEKQYTGFVRKYQIGASQTWFLLLNSRPKIVDFWSRANSKALLKARFLKLLAYAMCQNQKAWMSTGFMFYLPKRLLAFPKGNDTKSDHLSLYLDVAESESLPCGWRRHAQFSFTIVNHIPEKCSQRKDGEGSSFYEEIQLGHQEFLLFAIAENILASVRDARLQEGHHHHHH,not soluble
14,MEALRASYGDSSSDSDTDDLSPASPVTANSGEKDSISLPPPPLALLDSIVSTGSLDFFSTEPGVRVRNFPHVDGNYALHVYVPVCIPPLPKKEIVCFLKKVASVVPHLHLVEADVPLSILCKDDQKFERALGREFHISLGRNVPLRVHQINSVISMLRQKLQLQKRYLIDFNKWEVFVNDDHTRSFLSLEITTSGLSEISKQIDAVNEVYKLHNLPEFYKDPRPHISLVWALGDIRTSLKGAVDVELRKLRAGGCVQNRIFTSKFCGIECKIGNKTHKICKLPDE,soluble
15,MHHHHHHSSGVDLGTENLYFQSMQRGYLLTRNPHLNKDLAFTLEERQQLNIHGLLPPSFNSQEIQVLRVVKNFEHLNSDFDRYLLLMDLQDRNEKLFYRVLTSDIEKFMPIVYTPTVGLACQQYSLVFRKPRGLFITIHDRGHIASVLNAWPEDVIKAIVVTDGERILGLGDLGCNGMGIPVGKLALYTACGGMNPQECLPVILDVGTENEELLKDPLYIGLRQRRVRGSEYDDFLDEFMEAVSSKYGMNCLIQFEDFANVNAFRLLNKYRNQYCTFNDDIQGTASVAVAGLLAALRITKNKLSDQTILFQGAGEAALGIAHLIVMALEKEGLPKEKAIKKIWLVDSKGLIVKGRASLTQEKEKFAHEHEEMKNLEAIVQEIKPTALIGVAAIGGAFSEQILKDMAAFNERPIIFALSNPTSKAECSAEQCYKITKGRAIFASGSPFDPVTLPNGQTLYPGQGNNSYVFPGVALGVVACGLRQITDNIFLTTAEVIAQQVSDKHLEEGRLYPPLNTIRDVSLKIAEKIVKDAYQEKTATVYPEPQNKEAFVRSQMYSTDYDQILPDCYSWPEEVQ,soluble
16,MGSDKIHHHHHHMKLKTKTMEWSGNSLKLLDQRKLPFIEEYVECKTHEEVAHAIKEMIVRGAPAIGVAAAFGYVLGLRDYKTGSLTDWMKQVKETLARTRPTAVNLFWALNRMEKVFFENADRENLFEILENEALKMAYEDIEVNKAIGKNGAQLIKDGSTILTHCNAGALATVDYGTALGVIRAAVESGKRIRVFADETRPYLQGARLTAWELMKDGIEVYVITDNMAGWLMKRGLIDAVVVGADRIALNGDTANKIGTYSLAVLAKRNNIPFYVAAPVSTIDPTIRSGEEIPIEERRPEEVTHCGGNRIAPEGVKVLNPAFDVTENTLITAIITEKGVIRPPFEENIKKILEV,not soluble
17,MAHHHHHHMNTHVISVGSRWVHHEVTQALRQRRGVRVEVNEELQHCDFASRASSVLYCDAHSAEMQRDQASLVLRLQEARQRCGTQPVILMVRMDSDNEVSLERLSWLNLECGVAQQCGLILVWSLDDAVQYLASLAAYAVTSLEFTGAARPYVGDAPLPVLVDALTQTPQVVTRNDVVRIANRKTSVADALMSEASEWEGIAGLGRKKAARLQHLFRTPFLSSQQRIDSFVPATGGSSFSTASKAAESHLSQPTGESTARPTEALSVDTAVTTEGRRRMMSALQQRLDKEDEEGGE,not soluble
18,MSGKRALITGIRGQDGAYLAKLLLEKGYEVYGADRRSGEFASWRLKELGIENDVKIIHMDLLEFSNIIRTIEKVQPDEVYNLAAQSFVGVSFEQPILTAEVDAIGVLRILEALRTVKPDTKFYQASTSEMFGKVQEIPQTEKTPFYPRSPYAVAKLFGHWITVNYREAYNMFACSGILFNHESPLRGIEFVTRKITYSLARIKYGLQDKLVLGNLNAKRDWGYAPEYVEAMWLMMQQPEPDDYVIATGETHTVREFVEKAAKIAGFDIEWVGEGINEKGIDRNTGKVIVEVSEEFFRPAEVDILVGNPEKAMKKLGWKPRTTFDELVEIMMEADLKRVRDREVSV,soluble
